# Results as given in publication doi:10.1101/613059.
# B1: Dscam1 EBS mutant probe (ssRNA)
# RNA: UGUGUAAGUGAGUACGGUCGCUGUGGUGUGAUGAUGGGUGUGG
# modifications: U to G substitutions disrupting U-rich stretches
# Molecular target: T1, Elav (Drosophila melanogaster (w1118), UniProt P16914 1-483)
# T1 sequence: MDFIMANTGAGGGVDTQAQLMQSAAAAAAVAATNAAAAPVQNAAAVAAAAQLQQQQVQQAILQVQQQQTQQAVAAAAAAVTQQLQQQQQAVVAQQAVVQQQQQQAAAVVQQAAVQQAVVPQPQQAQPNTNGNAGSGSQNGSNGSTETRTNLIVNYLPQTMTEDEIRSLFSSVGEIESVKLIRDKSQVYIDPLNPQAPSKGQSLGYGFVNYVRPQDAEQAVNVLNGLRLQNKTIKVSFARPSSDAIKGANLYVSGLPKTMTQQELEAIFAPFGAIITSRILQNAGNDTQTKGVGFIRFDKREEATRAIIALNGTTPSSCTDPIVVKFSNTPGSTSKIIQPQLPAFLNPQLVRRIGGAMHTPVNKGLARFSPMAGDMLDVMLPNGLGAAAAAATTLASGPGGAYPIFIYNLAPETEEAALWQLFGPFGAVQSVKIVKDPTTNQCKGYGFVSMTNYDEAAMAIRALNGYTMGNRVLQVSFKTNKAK
# Experiment: EMSA
binder,measurement,value
B1,binding result,no binding
